Where no end group is shown, it is not given here. [ ]: non-standard residue; d: D form. Cit = NC(=O)NCCC[C@H](N)C(=O)O

For experiment [1], the target named is T1, Arginine containing control peptide of Histone H2A N-terminus (SEQ ID NO: 3), SGRGKQGGKARA (free N-terminal NH2 group).
T1 construct: Control peptide with arginine in place of citrulline
T1 peptide: SGRGKQGGKARA
Kind of experiment: peptide ELISA.

Experiment [2] has as its target T2, N-terminal citrullinated peptide of Histone H2A (SEQ ID NO: 1), SGCitGKQGGKARA (also: biotin, place not given here).
T2 peptide: SG[Cit]GKQGGKARA
Nature of the experiment: peptide ELISA, biotin peptide on neutravidin. The method, then: Optical density was measured by 450 nm and is a measure for the affinity of the antibodies used.

B1: Mouse monoclonal antibody Rmmab22.101 (antibody, V domains shown)
VH: RIQLVQSGPELKKPGEAVKISCKASGYTFTNYGMHWMKQTPGKDFRWMGWINTYSGEATYVDDFKGRFAFSLGTSASTAYLQINNLKNDDTATYFCLRGYTYQSFDEGGDYWGQGTALTVSS
VL: not shown
notes: Mouse monoclonal from hybridoma DSMZ ACC 3031; also called MQ22.101
Take B1: the binding result in experiment [1] was “no binding”; in experiment [2] it was “binds”.

Values taken from US20220073596A1 (CITRYLL B V, published 2022).
